Reference: article PMC7094638 (Journal of Molecular Biology, 2007)
Where two headings read alike, the source gives them in different places.

B1: 32-mer s2m dsDNA (dsDNA)
DNA 1: CGAGGCCACGCGGAGTACGATCGAGGGTACAG
DNA 2: CTGTACCCTCGATCGTACTCCGCGTGGCCTCG
B2: SARS-CoV NP248-365 (C-terminal domain of the SARS-CoV nucleocapsid protein, residues 248-365) (domain or fragment)
chain: TKKSAAEASKKPRQKRTATKQYNVTQAFGRRGPEQTQGNFGDQDLIRQGTDYKHWPQIAQFAPSASAFFGMSRIGMEVTPSGTWLTYHGAIKLDDKDPQFKDNVILLNKHIDAYKTFP

Legend:
[1] = biological target: T1, SARS-CoV N protein CTD (NP248-365) (SARS-CoV, UniProt P59595 248-365); assay: EMSA
[2] = biological target: SARS-CoV N protein NTD (NP45-181) (SARS-CoV, UniProt P59595 45-181); assay: EMSA
[3] = biological target: SARS-CoV N protein NP281-365 (SARS-CoV, UniProt P59595 281-365); assay: EMSA
[4] = biological target: SARS-CoV N protein NP45-365 (SARS-CoV, UniProt P59595 45-365); assay: EMSA
[5] = biological target: T1, SARS-CoV N protein CTD (NP248-365); assay: EMSA; remark: listed apart in the source
[6] = biological target: the molecule itself; assay: cross-linking

| Binder | binding result [1] | binding result [2] | binding result [3] | binding result [4] | binding result [5] | binding result [6] |
| --- | --- | --- | --- | --- | --- | --- |
| CGAGGCCACGCGGAGUACGAUCGAGGGUACAG (ssRNA) [s2m 32-mer ssRNA] | binds | binds | no binding | binds | – | – |
| CGAGGCCACGCGGAGTACGATCGAGGGTACAG (ssDNA) [32-mer ssDNA mimic of s2m] | binds | binds | no binding | binds | – | – |
| B1 | – | – | no binding | – | binds | – |
| B2 | – | – | – | – | – | binds |
